Experimental findings from US20230272055A1 (Incyte, published 2023) are described below.

The chains are these.
B1: anti-mutCALR antibody clone 8 (antibody, human IgG1, lambda, V domains shown)
VH: QVQLVQSGAEVKKPGSSVKVSCKVSGYTLTELSMQWVRQAPGKGLEWMGGFDPDDGETMYAEKFQGRLTVTEDTSTDTVYMELRSLTSEDTALYFCATSPGYDFFDYWGQGTLVTVSS
VL: SYELTQPPSVSVAPGQTARITCGGNNIGSKSVHWYQQKPGQAPVLVVYDDSDRPSGIPERFSGSNSGRTATLTISRVEAGDEADYHCQVWDSSSDHLVFGGGTKLTVLG
notes: human IgG1; group 1
B2: anti-mutCALR antibody clone 20 (antibody, human IgG1, lambda, V domains shown)
VH: EVQLVQSGAEVKKPGASVKVSCKVSGYTLTELSMQWVRQAPGKGLEWMGGFDPDDGETMYAEKFQGRLTVTEDTSTDTVYMELRSLTSEDTALYFCATSPGYDFFDYWGQGTLVTVSS
VL: SYVLTQPPSVSVAPGKTARITCGGNNIGSKGVHWYQQKPGQAPVLVVYDDSDRPSGIPERFSGSNSGNTATLTINRVEAGDEADYYCQVWDSSNDLLIFGGGTKLTVLG
notes: human IgG1; group 1
B3: anti-mutCALR antibody clone 13 (antibody, human IgG1, lambda, V domains shown)
VH: QVQLVQSGAEVKKPGASVKVSCKVSGYTLTELSMQWVRQAPGKGLEWMGGFDPDDGETMYAEKFQGRLTVTEDTSTDTVYMELRSLTSEDTALYFCATSPGYDFFDYWGQGTLVTVSS
VL: not shown
notes: human IgG1; group 1
B4: anti-mutCALR antibody clone 16 (antibody, human IgG1, lambda, V domains shown)
VH: EVQLVQSGAEVKKPGASVKVSCKVSGYTLTELSMQWVRQAPGKGLEWMGGFDPDDGETMYAEKFQGRLTVTEDTSTDTVYMELRSLTSEDTALYFCATSPGYDFFDYWGQGTLVTVSS
VL: SYVLTQPPSVSVAPGKTARITCGGNNTGSKSVHWYQQKPGQAPVLVVYDDSDRPSGIPERFSGSNSGNTATLTINRVEAGDEADYYCQVWDSSNDLLIFGGGTKLTVLG
notes: human IgG1; group 1
B5: anti-mutCALR antibody clone 15 (antibody, human IgG1, lambda)
heavy: not shown
light: SYELTQPPSVSVAPGKTARITCGGDNIGSKSVHWYQQKPGQAPVLVVYDDSDRPSGIPERFSGSNSGNTATLTINRVEAGDEADYYCQVWDSSNDLLIFGGGTKLTVLGQPKAAPSVTLFPPSSEELQANKATLVCLISDFYPGAVTVAWKADSSPVKAGVETTTPSKQSNNKYAASSYLSLTPEQWKSHRSYSCQVTHEGSTVEKTVAPTECS
notes: human IgG1; group 1
B6: anti-mutCALR antibody clone 22 (antibody, human IgG1, lambda, V domains shown)
VH: EVQLVQSGAEVKKPGASVKVSCKVSGYTLTELSMQWVRQAPGKGLEWMGGFDPDDGETMYAEKFQGRLTVTEDTSTDTVYMELRSLTSEDTALYFCATSPGYDFFDYWGQGTLVTVSS
VL: SYVLTQPPSVSVAPGKTARITCGGNNIGSKNVHWYQQKPGQAPVLVVYDDSDRPSGIPERFSGSNSGNTATLTINRVEAGDEADYYCQVWDSSNDLLIFGGGTKLTVLG
notes: human IgG1; group 1
B7: anti-mutCALR antibody clone 29 (antibody, human IgG1, lambda, V domains shown)
VH: EVQLVQSGAEVKKPGASVKVSCKVSGYTLTELSMQWVRQAPGKGLEWMGGFDPDDGETMYAEKFQGRLTVTEDTSTDTVYMELRSLTSEDTALYFCATSPGYDFFDYWGQGTLVTVSS
VL: SYVLTQPPSVSVAPGKTARITCGGNNIGSKSVHWYQQKPGQAPVLVVYDDSDRPSGIPERFSGSNSGNTATLTISRVEAGDEADYYCQVWDSSSDLLIFGGGAKLTVLG
notes: human IgG1; group 1
B8: anti-mutCALR antibody clone 26 (antibody, human IgG1, lambda, V domains shown)
VH: EVQLVQSGAEVKKPGASVKVSCKVSGYTLTELSMQWVRQAPGKGLEWMGGFDPDDGETMYAEKFQGRLTVTEDTSTDTVYMELRSLTSEDTALYFCATSPGYDFFDYWGQGTLVTVSS
VL: SYVLTQPPSVSVAPGQTARITCGGNNIGSKSVHWYQQKPGQAPVLVVYDDSDRPSGIPERFSGSNSGNTATLTISRVEAGDEADYYCQVWDSSIDHLIFGGGTKVTVLG
notes: human IgG1; group 1
B9: anti-mutCALR antibody clone 18 (antibody, human IgG1, lambda, V domains shown)
VH: EVQLVQSGAEVKKPGASVKVSCKVSGYTLTELSMQWVRQAPGKGLEWMGGFDPDDGETMYAEKFQGRLTVTEDTSTDTVYMELRSLTSEDTALYFCATSPGYDFFDYWGQGTLVTVSS
VL: SYVLTQPPSVSVAPGKTARITCGGNNIGSKSVHWYQQKPGQAPVLVVYDDSDRPLGIPERFSGSNSGNTATLTINRVEAGDEADYYCQVWDSSNDLLIFGGGTKLTVLG
notes: human IgG1; group 1
B10: anti-mutCALR antibody clone 19 (antibody, human IgG1, lambda, V domains shown)
VH: EVQLVQSGAEVKKPGASVKVSCKVSGYTLTELSMQWVRQAPGKGLEWMGGFDPDDGETMYAEKFQGRLTVTEDTPTDTVYMELRSLTSEDTALYFCATSPGYDFFDYWGQGTLVTVSS
VL: SYVLTQPLSVSVALGQTARITCGGSNIGDIRVHWYQQKPGQAPVLVVYDDSDRPSGIPERFSGSNSGNTATLTINRVEAGDEADYYCQVWDSSNDLLIFGGGTKLTVLG
notes: human IgG1; group 1
B11: anti-mutCALR antibody clone 9 (antibody, human IgG1, lambda, V domains shown)
VH: EVQLVQSGAEVKKPGASVKVSCKVSGYTLTELSMQWVRQAPGKGLEWMGGFDPDDGETMYAEKFQGRLTVTEDTSTDTVYMELRSLTSEDTALYFCATSPGYDFFDYWGQGTLVTVSS
VL: SYVLTQPPSVSVAPGQTARIPCGGNNIGSKSVHWYQQKPGQAPVLVVYDDRDRPSGIPERFSGSNSGNTATLTINRVEAGDEADYYCQVWDSSNDLLIFGGGTKLTVLG
notes: human IgG1; group 1
B12: anti-mutCALR antibody clone 24 (antibody, human IgG1, lambda, V domains shown)
VH: EVQLVQSGAEVKKPGASVKVSCKVSGYTLTELSMQWVRQAPGKGLEWMGGFDPDDGETMYAEKLQGRLTVTEDTSTDTVYMELRSLTSEDTALYFCATSPGYDFFDYWGQGTLVTVSS
VL: SYVLTQPPSVSVAPGKTARITCGGNNIGSKSVHWYQQKPGQAPVLVVYDDSDRPSGIPERFSGSNSGNTATLTINRVEAGDEADYYCQVWDSSNDLLIFGGGTKLTVLG
notes: human IgG1; group 1
B13: anti-mutCALR antibody clone 27 (antibody, human IgG1, lambda, V domains shown)
VH: EVQLVQSGAEVKKPGASVKVSCKVSGYTLTELSMQWVRQAPGKGLEWMGGFDPDDGETMYAEKFQGRLTVTEDTSTDTVYMELRSLTSEDTALYFCATSPGYDFFDYWGQGTLVTVSS
VL: SYVLTQPPSVSVAPGQTARITCGGNNIGIKSVHWYQQKPGQAPVLVVYDDRDRPSGIPERFSGSNSGNTATLTINRVEAGDEADYYCQVWDSSNDLLIFGGGTKLTVLG
notes: human IgG1; group 1
B14: anti-mutCALR antibody clone 10 (antibody, human IgG1, lambda, V domains shown)
VH: EVQLVQSGAEVKKPGASVKVSCKVSGYTLTELSMQWVRQAPGKGLEWMGGFDPDDGETMYAEKFQGRLTVTEDTSTDTVYMELRSLTSEDTALYFCATSPGYDFFDYWGQGTLVTVSS
VL: SYELTQPPSVSVAPGQTARIPCGGNNIGSEGVHWYQQKPGQAPVLVVYDDSDRPSGIPERFSGSNSGNTATLTISRVEAGDEADYYCQVWDSSNDLLIFGGGTKLTVLG
notes: human IgG1; group 1
B15: anti-mutCALR antibody clone 12 (antibody, human IgG1, lambda, V domains shown)
VH: EVQLVQSGAEVKKPGASVKVSCKVSGYTLTELSMQWVRQAPGKGLEWMGGFDPDGGETMYAEKFQGRLTVTEDTSTDTVYMELRSLTSEDTALYFCATSPGYDFFDYWGQGTLVTVSS
VL: SYVLTQPPSVSVAPGQTARVSCGGNNIGSKSVNWYRQKPGQAPVLVIYDDSDRPSGIPERFSGSNSGNTATLTINRVEAGDEADYYCQVWDSSNDLLIFGGGTKLTVLG
notes: human IgG1; group 1
B16: anti-mutCALR antibody clone 21 (antibody, human IgG1, lambda, V domains shown)
VH: EVQLVQSGAEVKKPGASVKVSCEVSGYTLTELSMQWVRQAPGKGLEWMGGFDPDDGETMYAEKFQGRLTVTEDTSTDTVYMELRSLTSEDTALYFCATSPGYDFFDYWGQGTLVTVSS
VL: SYVLTQPPSVSVAPGQTARVSCGGNNIGSKSVNWYRQKPGQAPVLVIYDDSDRPSGIPERFSGSNSGNTATLTISRVEAGDEADYYCQVWDSSNDLLIFGGGTKLTVLG
notes: human IgG1; group 1
B17: anti-mutCALR antibody clone 23 (antibody, human IgG1, lambda, V domains shown)
VH: EVQLVQSGAEVKKPGASVKVSCKVSGYTLTELSMQWVRQAPGKGLEWMGGFDPDDGETMYAEKFQGRLTVTEDTSTDTVYMELRSLTSEDTALYFCATSPGYDFFDYWGQGTLVTVSS
VL: SYVLTQPPSVSVAPGQTARITCGGNNIGIKSVHWYQQKPGQAPVLVVYDDSDRPSGIPERFSGSNSGNTATLTINRVEAGDEADYYCQVWDSSNDLLIFGGGTKLTVLG
notes: human IgG1; group 1
B18: anti-mutCALR antibody clone 17 (antibody, human IgG1, lambda)
heavy: not shown
light: SYVLTQPPSVSVAPGQTARITCGGSDIGDEIVHWYQQKPGQAPVLVVYDDSDRPSGIPERFSGSNSGNTATLTISRAQAGDEADYYCQVWDSSSDHLIFGGGTKLTVLGQPKAAPSVTLFPPSSEELQANKATLVCLISDFYPGAVTVAWKADSSPVKAGVETTTPSKQSNNKYAASSYLSLTPEQWKSHRSYSCQVTHEGSTVEKTVAPTECS
notes: human IgG1; group 1
B19: anti-mutCALR antibody clone 25 (antibody, human IgG1, lambda, V domains shown)
VH: EVQLVQSGAEVKKPGASVKVSCKVSGYTLTELSMQWVRQAPGKGLEWMGGFDPDDGETMYAEKFQGRLTVTEDTSTDTVYMELRSLTSEDTALYFCATSPGYDFFDYWGQGTLVTVSS
VL: SYELTQPPSVAVAPGQTARITCGGNNIGRKAVHWYQQKPGQAPVLVVYDDSDRPSGIPERFSGSNSGNTATLTINRVEAGDEADYYCQVWDSSNDLLIFGGGTKLTVLG
notes: human IgG1; group 1
B20: anti-mutCALR antibody clone 28 (antibody, human IgG1, lambda, V domains shown)
VH: EVQLVQSGAEVKKPGASVKVSCKVSGYTLTELSMQWVRQAPGKGLEWMGGFDPDDGETMYAEKFQGRLTVTEDTSTDTVYMELRSLTSEDTALYFCATSPGYDFFDYWGQGTLVTVSS
VL: SYELTQPPSVSVAPGQTARITCGGNNIGSKSVHWYQQKPGQAPVLVVYDDSDRPSGIPERFSGSNSGNTATLTISRVEAGDEADYYCQVWDADSDQLIFGGGTKLTVLG
notes: human IgG1; group 1

For this assay, the target named is MBP protein (UniProt P0AEX9 27-392 = MBP). Put plainly: SPR (Biacore 8K), antibody captured on anti-human IgG (Fc), MBP injected. The method, then: Experiment 1: Recombinant MBP-mutCALR Type 1 fusion protein was custom made at Cepter (cepterbiopartners.com). Data for the interaction of antibodies with recombinant MBP-mutCALR Type 1 fusion protein were collected at 25° C. on a Biacore 8K instrument (Cytiva, Marlborough, Mass.), and all reagents were obtained from Cytiva unless otherwise specified. The experiments were conducted using Tris-buffered saline (pH 7.2), 0.005% Surfactant P20, 1 mM CaCl₂) as running buffer. To prepare the capture surfaces, anti-human IgG (Fc) antibodies (Product #29234600) was amine-coupled onto a CM4 chip (Product #BR100534) under standard conditions using an Amine Coupling Kit (Product #BR100050). […] The kinetics parameters were obtained by applying 1:1 binding model to fit the data from multiple-cycle injection experiments using Biacore Insight Evaluation software.
For the molecule B1, the binding result is listed as “no binding (tested: 250 nM)”.
For B2, the binding result is recorded as “no binding (tested: 250 nM)”.
In the case of B3, the binding result is recorded as “no binding (tested: 250 nM)”.
The entry for B4 is “no binding (tested: 250 nM)”.
As to B5, the binding result is reported as “no binding (tested: 250 nM)”.
For the molecule B6, the binding result is “no binding (tested: 250 nM)”.
The result for B7 reads “no binding (tested: 250 nM)”; that for B8, “no binding (tested: 250 nM)”; that for B9, “no binding (tested: 250 nM)”.
For B10, the binding result was “no binding (tested: 250 nM)”.
As to B11, the binding result is recorded as “no binding (tested: 250 nM)”.
The entry for B12 is “no binding (tested: 250 nM)”; for B13 it is “no binding (tested: 250 nM)”; for B14 it is “no binding (tested: 250 nM)”.
As to B15, the binding result is on record as “no binding (tested: 250 nM)”.
Regarding B16, the binding result is recorded as “no binding (tested: 250 nM)”.
On to B17, for which the binding result is given as “no binding (tested: 250 nM)”.
The result for B18 reads “no binding (tested: 250 nM)”; that for B19, “no binding (tested: 250 nM)”; that for B20, “no binding (tested: 250 nM)”.
